B1: Lysozyme C, P61626 (parent)
chain: MKALIVLGLVLLSVTVQGKVFERCELARTLKRLGMDGYRGISLANWMCLAKWESGYNTRATNYNAGDRSTDYGIFQINSRYWCNDGKTPGAVNACHLSCSALLQDNIADAVACAKRVVRDPQGIRAWVAWRNRCQNRDVRQYVQGCGV

Variants of: B1
Conditions: Homo sapiens, Thermal, DSC, reversible: yes, structure 1LZ1, whole UniProt chain shown; for ddG of mutation (higher = less stable) / unfolding free energy: 65 °C
[1] = pH 2.2, glycine hydrochloride 0.05 M
[2] = pH 2.3, glycine hydrochloride 0.05 M, KCl 0.2 M
[3] = pH 4.5, sodium acetate 0.02 M, KCl 0.2 M

For D120N, the Tm [1] was 58.1 °C, the “change of melting temperature, mutant - wild type (higher = more stable)” value (shortened to “change of melting temperature, mutant”) [1] was 0.6 °C and the Tm [2] was 56.7 °C. For the same variant, the “change of melting temperature, mutant” value [2] was 0.5 °C, the “ddG of mutation (higher = less stable)” value (pH 4, sodium acetate 0.02 M) was 0.67 kcal/mol and the unfolding free energy (pH 4, sodium acetate 0.02 M) was 4.76 kcal/mol. The “ddG of mutation (higher = less stable)” value [3] was -0.07 kcal/mol, the unfolding free energy [3] was 4.13 kcal/mol and the Tm [3] was 77.9 °C. For the same variant, the “change of melting temperature, mutant” value [3] was 0.2 °C.

In the case of E25Q, the Tm [1] is reported as 57.8 °C, the “change of melting temperature, mutant” value [1] is reported as 0.3 °C and the Tm [2] is reported as 54.6 °C. For the same variant, the “change of melting temperature, mutant” value [2] was -1.6 °C, the “ddG of mutation (higher = less stable)” value (pH 4, sodium acetate 0.02 M) was 1.43 kcal/mol and the unfolding free energy (pH 4, sodium acetate 0.02 M) was 3.99 kcal/mol. The Tm (pH 4, sodium acetate 0.02 M) was 76.2 °C, the “change of melting temperature, mutant” value (pH 4, sodium acetate 0.02 M) was -3.9 °C and the “ddG of mutation (higher = less stable)” value [3] was 1.29 kcal/mol. The unfolding free energy [3] was 2.77 kcal/mol, the Tm [3] was 75.5 °C and the “change of melting temperature, mutant” value [3] was -2.2 °C.

In the case of D67N, the Tm [1] is reported as 57.5 °C, the “change of melting temperature, mutant” value [1] is reported as 0 °C and the “ddG of mutation (higher = less stable)” value (pH 4, sodium acetate 0.02 M) is reported as 1 kcal/mol. For the same variant, the unfolding free energy (pH 4, sodium acetate 0.02 M) was 4.42 kcal/mol, the Tm (pH 4, sodium acetate 0.02 M) was 77.4 °C and the “change of melting temperature, mutant” value (pH 4, sodium acetate 0.02 M) was -2.7 °C.

In the case of D138N, the Tm [1] is reported as 57.8 °C, the “change of melting temperature, mutant” value [1] is reported as 0.3 °C and the Tm [2] is reported as 56.9 °C. For the same variant, the “change of melting temperature, mutant” value [2] was 0.7 °C, the “ddG of mutation (higher = less stable)” value (pH 4, sodium acetate 0.02 M) was 0.67 kcal/mol and the unfolding free energy (pH 4, sodium acetate 0.02 M) was 4.76 kcal/mol. For the same variant, the Tm (pH 4, sodium acetate 0.02 M) was 78.3 °C, the “change of melting temperature, mutant” value (pH 4, sodium acetate 0.02 M) was -1.8 °C and the “ddG of mutation (higher = less stable)” value [3] was -0.05 kcal/mol. The unfolding free energy [3] was 4.13 kcal/mol, the Tm [3] was 77.8 °C and the “change of melting temperature, mutant” value [3] was 0.1 °C.

For D36N, the Tm [1] was 56 °C, the “change of melting temperature, mutant” value [1] was -1.5 °C and the Tm (pH 4, sodium acetate 0.02 M) was 75.5 °C. The “change of melting temperature, mutant” value (pH 4, sodium acetate 0.02 M) was -4.6 °C.

In the case of D85N, the Tm [1] is reported as 56.8 °C, the “change of melting temperature, mutant” value [1] is reported as -0.7 °C and the Tm [2] is reported as 55.2 °C. The “change of melting temperature, mutant” value [2] was -1 °C, the “ddG of mutation (higher = less stable)” value (pH 4, sodium acetate 0.02 M) was 2.25 kcal/mol and the unfolding free energy (pH 4, sodium acetate 0.02 M) was 3.18 kcal/mol. For the same variant, the Tm (pH 4, sodium acetate 0.02 M) was 74 °C, the “change of melting temperature, mutant” value (pH 4, sodium acetate 0.02 M) was -6.1 °C and the “ddG of mutation (higher = less stable)” value [3] was 1.7 kcal/mol. The unfolding free energy [3] was 2.37 kcal/mol, the Tm [3] was 72.5 °C and the “change of melting temperature, mutant” value [3] was -5.2 °C.

— FireProtDB (doi:10.1021/bi000849s)
